Measurements reported in patent US20230374148A1, “BINDING MOLECULES THAT MULTIMERISE CD45” (UCB BIOPHARMA SRL, priority 2020, published 2023).
Like-named read-outs stand apart in the source and are kept apart here.

B1: 6294 Fab: Fab fragment of mouse anti-CD45 antibody 6294 (antibody, V domains shown)
VH: EVQLVESGAELARPGASVKMSCKASGYTFTSYTMHWVKQRPGQGLEWIGYINPSSGYTEYNQKFKDKTTLTADKSSSTAYLQLSSLTSEDSAVYYCARVGDGFYPSWLAYWGQGTLVTVSS
VL: DIQMTQSPKFLLVSAGDRVTITCKASQSVRNDVAWYQQKPGQSPKLLIFYASKRYTGVPDRFTGSGYGTDFTFTISTVQAEDLAVYFCQQDYSSPTTFGGGTKLEIK
B2: 4133 Fab: Fab fragment of rabbit anti-CD45 antibody 4133 (antibody)
heavy: QEQLVESGGGLVQPEGSLTLTCTASGFSFSGNYYMCWVRQAPGKGLEWIGCLYTGSSGSTYYASWAKGRFTISKTSSTTVTLQMTSLTAADTATYFCARDLGYEIDGYGGLWGQGTLVTVSSGQPKAPSVFPLAPCCGDTPSSTVTLGCLVKGYLPEPVTVTWNSGTLTNGVRTFPSVRQSSGLYSLSSVVSVTSSSQPVTCNVAHPATNTKVDKTVAPSTCSKP
light: AQVLTQTPSPVSAVVGGTVSISCQASQSVYNNNNLSWYQQKPGQPPKLLIYDASKLASGVPSRFKGSGSGTQFTLTISGVQCDDAATYYCLGGYYSSGWYFAFGGGTKVVVKRTPVAPTVLIFPPAADQVATGTVTIVCVANKYFPDVTVTWEVDGTTQTTGIENSKTPQNSADCTYNLSSTLTLTSTQYNSHKEYTCKVTQGTTSVVQSFNRGDC
B3: 4133-6294 IgG4P FALA Knob-in-Hole (bispecific antibody)
heavy 1: QEQLVESGGGLVQPEGSLTLTCTASGFSFSGNYYMCWVRQAPGKGLEWIGCLYTGSSGSTYYASWAKGRFTISKTSSTTVTLQMTSLTAADTATYFCARDLGYEIDGYGGLWGQGTLVTVSSASTKGPSVFPLAPCSRSTSESTAALGCLVKDYFPEPVTVSWNSGALTSGVHTFPAVLQSSGLYSLSSVVTVPSSSLGTKTYTCNVDHKPSNTKVDKRVESKYGPPCPPCPSAPEAAGGPSVFLFPPKPKDTLMISRTPEVTCVVVDVSQEDPEVQFNWYVDGVEVHNAKTKPREEQFNSTYRVVSVLTVLHQDWLNGKEYKCKVSNKGLPSSIEKTISKAKTGQPREPQVYTLPPSQEEMTKNQVSLWCLVKGFYPSDIAVEWESNGQPENNYKTTPPVLDSDGSFFLYSRLTVDKSRWQEGNVFSCSVMHEALHNHYTQKSLSLSLGK
heavy 2: EVQLVESGAELARPGASVKMSCKASGYTFTSYTMHWVKQRPGQGLEWIGYINPSSGYTEYNQKFKDKTTLTADKSSSTAYLQLSSLTSEDSAVYYCARVGDGFYPSWLAYWGQGTLVTVSSASTKGPSVFPLAPCSRSTSESTAALGCLVKDYFPEPVTVSWNSGALTSGVHTFPAVLQSSGLYSLSSVVTVPSSSLGTKTYTCNVDHKPSNTKVDKRVESKYGPPCPPCPAPEAAGGPSVFLFPPKPKDTLMISRTPEVTCVVVDVSQEDPEVQFNWYVDGVEVHNAKTKPREEQFNSTYRVVSVLTVLHQDWLNGKEYKCKVSNKGLPSSIEKTISKAKGQPREPQVYTLPPSQEEMTKNQVSLSCAVKGFYPSDIAVEWESNGQPENNYKTTPPVLDSDGSFFLVSRLTVDKSRWQEGNVFSCSVMHEALHNHYTQKSLSLSLGK
light 1: AQVLTQTPSPVSAVVGGTVSISCQASQSVYNNNNLSWYQQKPGQPPKLLIYDASKLASGVPSRFKGSGSGTQFTLTISGVQCDDAATYYCLGGYYSSGWYFAFGGGTKVVVKRTVAAPSVFIFPPSDEQLKSGTASVVCLLNNFYPREAKVQWKVDNALQSGNSQESVTEQDSKDSTYSLSSTLTLSKADYEKHKVYACEVTHQGLSSPVTKSFNRGEC
light 2: DIQMTQSPKFLLVSAGDRVTITCKASQSVRNDVAWYQQKPGQSPKLLIFYASKRYTGVPDRFTGSGYGTDFTFTISTVQAEDLAVYFCQQDYSSPTTFGGGTKLEIKRTVAAPSVFIFPPSDEQLKSGTASVVCLLNNFYPREAKVQWKVDNALQSGNSQESVTEQDSKDSTYSLSSTLTLSKADYEKHKVYACEVTHQGLSSPVTKSFNRGEC

Key:
CD45 D1-D4 = molecular target: T1, CD45 D1-D4 (Homo sapiens, UniProt P08575); test: Surface plasmon resonance (Biacore) affinity of Fabs; type: binding; conditions: 25° C.; for Ka: association constant, CD45 D1-D4 50 nM to 0.05 nM
T1 construct: extracellular domain of CD45 (UniProtKB—P08575, residue positions 225-573); TEV cleavage site (C); 10-His tag (C); made in house; host or cells: HEK293
T1 sequence (P08575 225-573): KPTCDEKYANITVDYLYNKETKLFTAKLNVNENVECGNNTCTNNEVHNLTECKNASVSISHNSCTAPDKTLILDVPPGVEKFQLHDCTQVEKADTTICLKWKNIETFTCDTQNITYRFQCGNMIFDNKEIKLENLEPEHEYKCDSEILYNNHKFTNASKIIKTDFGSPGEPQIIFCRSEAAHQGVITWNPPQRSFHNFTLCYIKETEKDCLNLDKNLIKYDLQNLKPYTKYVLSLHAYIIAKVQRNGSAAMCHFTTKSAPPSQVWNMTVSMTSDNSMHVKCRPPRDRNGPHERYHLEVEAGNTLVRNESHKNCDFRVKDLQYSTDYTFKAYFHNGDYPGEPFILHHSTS
Protocol: Surface plasmon resonance (SPR) experiments were carried out at 25° C. on a Biacore 3000 system using CM5 sensor chips (GE Healthcare Bio-Sciences AB, Uppsala, Sweden) and HBS-EP running buffer (10 mM HEPES, 150 mM NaCl, EDTA 2 mM and 0.005% (v/v) P20, pH 7.4). 4133 rabbit Fab and 6294 mouse Fab were captured using polyclonal goat F(ab)2 fragment anti-rabbit F(ab)2, (Jackson Labs product code #111-006-047) and polyclonal goat F(ab)2 fragment anti-mouse F(ab)2, (Jackson Labs product code #115-006-072), respectively. Covalent immobilization of the capturing antibody was achieved by standard amine coupling chemistry to a level of 1000-3000 response units (RU).
CD45 D1-D4 was titrated over the captured purified antibody from 50 nM to 0.05 nM. Each assay cycle consisted of first capturing the antibody Fab fragment using a 1-min injection at a flow rate of 10 μl/min, followed by an association phase consisting of a 3-min injection of CD45 D1-D4 at a flow rate of 30 μl/min. The subsequent dissociation phase was monitored for at least 3 min. After each cycle, the capture surface was regenerated at a flow rate of 10 μl/min with a 1-min injection of 40 mM HCl followed by a 30-sec injection of 5 mM NaOH. A blank flow-cell was used for reference subtraction and buffer-blank injections were included to subtract instrument noise and drift. Kinetic parameters were determined using BIAevaluation software (version 4.1.1).

[1] = molecular target: T2, human CD45 on cells (PBMC, whole blood cells, macrophages, leukaemia and lymphoma cell lines) (human, UniProt P08575 26-1306); test: cell-based or functional assay
T2 sequence: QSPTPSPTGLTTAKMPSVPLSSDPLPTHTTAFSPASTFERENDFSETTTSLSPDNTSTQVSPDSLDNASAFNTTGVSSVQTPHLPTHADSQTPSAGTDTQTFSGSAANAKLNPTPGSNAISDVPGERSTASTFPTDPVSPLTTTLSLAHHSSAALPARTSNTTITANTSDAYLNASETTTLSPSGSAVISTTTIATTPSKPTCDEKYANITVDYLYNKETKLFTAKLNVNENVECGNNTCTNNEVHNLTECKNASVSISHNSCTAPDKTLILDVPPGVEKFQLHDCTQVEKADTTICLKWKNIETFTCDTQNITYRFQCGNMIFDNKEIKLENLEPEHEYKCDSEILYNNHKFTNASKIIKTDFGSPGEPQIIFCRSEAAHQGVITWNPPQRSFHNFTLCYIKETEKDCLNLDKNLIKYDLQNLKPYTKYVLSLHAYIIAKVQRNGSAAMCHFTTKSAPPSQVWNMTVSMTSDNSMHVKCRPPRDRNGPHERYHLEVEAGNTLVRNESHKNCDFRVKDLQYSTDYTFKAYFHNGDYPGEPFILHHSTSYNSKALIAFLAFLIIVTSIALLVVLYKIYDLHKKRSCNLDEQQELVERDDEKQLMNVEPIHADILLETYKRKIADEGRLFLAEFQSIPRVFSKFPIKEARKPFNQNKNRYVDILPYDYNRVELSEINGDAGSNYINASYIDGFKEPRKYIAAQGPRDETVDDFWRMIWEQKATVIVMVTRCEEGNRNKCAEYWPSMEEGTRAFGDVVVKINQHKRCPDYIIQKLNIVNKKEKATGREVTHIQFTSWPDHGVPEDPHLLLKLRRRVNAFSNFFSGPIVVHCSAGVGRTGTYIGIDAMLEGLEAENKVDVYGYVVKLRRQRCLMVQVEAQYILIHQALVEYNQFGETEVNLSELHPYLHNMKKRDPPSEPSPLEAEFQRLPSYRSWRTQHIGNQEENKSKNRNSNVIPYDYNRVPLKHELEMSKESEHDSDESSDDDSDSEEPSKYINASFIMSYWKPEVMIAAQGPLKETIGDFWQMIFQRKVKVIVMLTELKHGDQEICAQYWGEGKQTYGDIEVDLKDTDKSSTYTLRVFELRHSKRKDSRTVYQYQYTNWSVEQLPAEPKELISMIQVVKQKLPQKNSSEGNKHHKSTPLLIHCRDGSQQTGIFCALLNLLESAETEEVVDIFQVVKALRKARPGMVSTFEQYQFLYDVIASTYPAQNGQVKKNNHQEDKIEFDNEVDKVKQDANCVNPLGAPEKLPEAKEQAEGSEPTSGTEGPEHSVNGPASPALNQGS

Molecule	Kd (CD45 D1-D4; SPR, read-out: affinity) [pM]	Ka (CD45 D1-D4; captured Fab) [M⁻¹ s⁻¹]	Dissociation rate constant koff (CD45 D1-D4; captured Fab) [s⁻¹]	Kd (CD45 D1-D4; affinity constant, captured Fab, read-out: KD) [pM]	EC50 of reduction of lymphocytes in PBMC, 24 h (UCB Cone-802) [1] [pM]	EC50 of reduction of lymphocytes in PBMC, 24 h (UCB Cone-811) [1] [pM]
B1	85	2.6e+06	0.00022	–	–	–
B2	61000	570000	0.035	61000	–	–
B3	–	–	–	–	90	170
